Assay results published in article doi:10.1101/2022.12.01.518643 (bioRxiv, 2022).

How the values were obtained:
[1] = target: soluble DP4 (HLA-DPA1*01:03/DPB1*04:01) (human); test: fluorescence polarisation
[2] = target: soluble DP4 (HLA-DPA1*01:03/DPB1*04:01) (human); test: fluorescence polarisation; remark: listed apart in the source

Molecule | IC50 [1] [nM] | fold change of binding against the OC43 peptide P4 [2] [fold]
OC43 hemagglutinin esterase peptide 259–273 (P1) | < 1000 | 
RSFIEDLLFNKVTLA (modifications not checked) [SARS-CoV-2 homolog of the OC43 peptide P4] |  | 10
